From PMC11718114

Key:
[1] = molecular target: PI3Kα: p110α(2-1068) W1057A/I1058A/F1059A + p85(322-600) (human) (UniProt P42336); assay: ITC; GMPPNP-bound RAS (300–500 μM) in the syringe, PI3K isoform or PI3Kα-RBD (30–50 μM) in the cell; 25 °C; 20 mM HEPES pH 7.4, 150 mM NaCl, 5 mM MgCl2, 1 mM TCEP; one set of sites; duplicates
PI3Kα-RBD-T208A (human) = PI3Kα-RBD-T208A (human) (UniProt P42336); assay: ITC; RAS GTPase (GMPPNP-bound, 300–500 μM) in the syringe, PI3K isoform or PI3Kα-RBD (30–50 μM) in the cell; 25 °C; 20 mM HEPES pH 7.4, 150 mM NaCl, 5 mM MgCl2, 1 mM TCEP; one set of sites; two replicates
[2] = molecular target: p110α-RBD(157-289) T208A (human) (UniProt P42336); assay: ITC; GMPPNP-bound RAS (300–500 μM) in the syringe, PI3K isoform or PI3Kα-RBD (30–50 μM) in the cell; 25 °C; 20 mM HEPES pH 7.4, 150 mM NaCl, 5 mM MgCl2, 1 mM TCEP; one set of sites; duplicates
[3] = molecular target: PI3Kδ: p110δ(1-1044) + p85(322-600) (human) (UniProt O00329); assay: as above
[4] = molecular target: p110α-RBD(157-289) K206A (human) (UniProt P42336); assay: as above
[5] = molecular target: p110α-RBD(157-289) K210A (human) (UniProt P42336); assay: as above
[6] = molecular target: PI3Kα-RBD, PIK3CA-RBD(157-289) (human) (UniProt P42336); assay: as above
PI3Kα-RBD-K206A (human) = PI3Kα-RBD-K206A (human) (UniProt P42336); assay: ITC; RAS GTPase (GMPPNP-bound, 300–500 μM) in the syringe, PI3K isoform or PI3Kα-RBD (30–50 μM) in the cell; 25 °C; 20 mM HEPES pH 7.4, 150 mM NaCl, 5 mM MgCl2, 1 mM TCEP; one set of sites; two replicates
PI3Kα-RBD-Q205A (human) = PI3Kα-RBD-Q205A (human) (UniProt P42336); assay: as above
PI3Kα-RBD-K210A (human) = PI3Kα-RBD-K210A (human) (UniProt P42336); assay: as above
PI3Kα-RBD-S231A (human) = PI3Kα-RBD-S231A (human) (UniProt P42336); assay: as above
[7] = molecular target: PI3Kα-RBD, PIK3CA-RBD(157-289) (human) (UniProt P42336); assay: as above

Row | Substance | Kd [7] | stoichiometry N [7] | other results
1 | MRAS (wild type) (from UniProt O14807 1-178) (domain or fragment) |  |  | Kd [1]: 5.3 µM; dH [1]: -17 kcal/mol
2 | MRAS, GMPPNP-bound (from UniProt O14807 1-178) (domain or fragment) |  |  | Kd (PI3Kα-RBD-T208A (human)): 19.5 µM; stoichiometry N (PI3Kα-RBD-T208A (human)): 0.93 sites
3 | RRAS2 (wild type) (from UniProt P62070 1-179) (domain or fragment) |  |  | fold decrease in affinity against wild-type p110α-RBD [2]: 5 fold; Kd [3]: 14 µM; fold reduction in affinity against wild-type p110α-RBD [4]: 15 fold; fold decrease in affinity against wild-type p110α-RBD [5]: 5 fold; Kd [1]: 3.9 µM; dH [1]: -17 kcal/mol
4 | RRAS2 T52R (from UniProt P62070 1-179) (domain or fragment) |  |  | fold reduction in binding affinity against wild-type RRAS2 [6]: 7 fold
5 | RRAS2, GMPPNP-bound (from UniProt P62070 1-179) (domain or fragment) |  |  | Kd (PI3Kα-RBD-K206A (human)): 107 µM; stoichiometry N (PI3Kα-RBD-K206A (human)): 0.92 sites; Kd (PI3Kα-RBD-T208A (human)): 45 µM; stoichiometry N (PI3Kα-RBD-T208A (human)): 0.9 sites; Kd (PI3Kα-RBD-Q205A (human)): 8.2 µM; stoichiometry N (PI3Kα-RBD-Q205A (human)): 0.86 sites; Kd (PI3Kα-RBD-K210A (human)): 41.7 µM; stoichiometry N (PI3Kα-RBD-K210A (human)): 0.81 sites; Kd (PI3Kα-RBD-S231A (human)): 8.3 µM; stoichiometry N (PI3Kα-RBD-S231A (human)): 0.88 sites
6 | RRAS2-D42A, GMPPNP-bound (from UniProt P62070 1-179) (domain or fragment) | 66.9 µM | 1.2 sites | 
7 | RRAS2-D42E, GMPPNP-bound (from UniProt P62070 1-179) (domain or fragment) | 16.1 µM | 0.89 sites | 
8 | RRAS2-D44A, GMPPNP-bound (from UniProt P62070 1-179) (domain or fragment) | 28.2 µM | 0.81 sites | 
9 | RRAS2-E48A, GMPPNP-bound (from UniProt P62070 1-179) (domain or fragment) | 32.4 µM | 0.92 sites | 
10 | RRAS2-E74A, GMPPNP-bound (from UniProt P62070 1-179) (domain or fragment) | 12.4 µM | 0.83 sites | 
11 | RRAS2-F75A, GMPPNP-bound (from UniProt P62070 1-179) (domain or fragment) | 21.5 µM | 1.11 sites | 
12 | RRAS2-G23D, GMPPNP-bound (from UniProt P62070 1-179) (domain or fragment) | 6.4 µM | 0.75 sites | 
13 | RRAS2-G23V, GMPPNP-bound (from UniProt P62070 1-179) (domain or fragment) | 12.8 µM | 0.91 sites | 
14 | RRAS2-M78A, GMPPNP-bound (from UniProt P62070 1-179) (domain or fragment) | 134 µM | 1.2 sites | 
15 | RRAS2-Q72H, GMPPNP-bound (from UniProt P62070 1-179) (domain or fragment) | 14.2 µM | 0.85 sites | 
16 | RRAS2-Q72L, GMPPNP-bound (from UniProt P62070 1-179) (domain or fragment) | 8.5 µM | 0.88 sites | 
17 | RRAS2-R63A, GMPPNP-bound (from UniProt P62070 1-179) (domain or fragment) | 6.4 µM | 0.9 sites | 
18 | RRAS2-T52R, GMPPNP-bound (from UniProt P62070 1-179) (domain or fragment) | 28.5 µM | 1.01 sites | 
19 | RRAS2-Y38F, GMPPNP-bound (from UniProt P62070 1-179) (domain or fragment) | 4.3 µM | 0.92 sites | 
